Values of other authors in article doi:10.1101/2020.11.23.394015.

Biological target: Glu89 (UniProt position 105, IDALNENKVLV)
Settings: folded; closed-to-open EF loop (Tanford) transition

Q: For beta-lactoglobulin (BBL) (Bos taurus), which pKa is on record?
A: Its pKa is ~ 7.3.
